Assay results from patent EP1379283B1, “IDENTIFICATION OF TARGET-SPECIFIC FOLDING SITES IN PEPTIDES AND PROTEINS” (Palatin Technologies, Inc., priority 2000, dated 2002).

Assays:
[1] = target: uPA receptor (urokinase-type plasminogen activator receptor) on U937 cells (UniProt Q03405); test: competition receptor-binding assay on U937 cells, ATF as competing ligand, metallopeptide at 1 µM
[2] = target: vasopressin-1 receptor of rat liver cell membranes (rat) (UniProt P30560); test: competition with 3H-vasopressin-1 antagonist on rat liver membranes, metallopeptide at 1 µM
[3] = target: oxytocin receptor of rat uterus cell membranes (rat) (UniProt P70536); test: competition with 3H-oxytocin on rat uterus membranes, metallopeptide at 1 µM
[4] = target: angiotensin-II receptor of human neuroblastoma cells (KAN-TS) (human); test: competition with 125I-Tyr4,Sar1,Ile8-angiotensin II on KAN-TS human neuroblastoma cell membranes, metallopeptide at 1 µM
Chain of angiotensin-II receptor of human neuroblastoma cells (KAN-TS) (human) (P30556 whole entry): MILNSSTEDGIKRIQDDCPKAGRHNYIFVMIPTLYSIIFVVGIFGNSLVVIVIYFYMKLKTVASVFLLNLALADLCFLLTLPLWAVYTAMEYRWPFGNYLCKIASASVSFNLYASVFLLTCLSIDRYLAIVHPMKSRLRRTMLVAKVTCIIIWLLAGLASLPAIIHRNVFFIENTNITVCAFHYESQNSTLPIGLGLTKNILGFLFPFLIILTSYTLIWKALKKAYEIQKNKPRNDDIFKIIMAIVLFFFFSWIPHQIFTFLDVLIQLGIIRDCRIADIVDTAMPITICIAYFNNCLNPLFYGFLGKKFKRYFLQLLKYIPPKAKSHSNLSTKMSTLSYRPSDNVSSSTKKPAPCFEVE

Chain of uPA receptor (urokinase-type plasminogen activator receptor) on U937 cells (Q03405 23-305): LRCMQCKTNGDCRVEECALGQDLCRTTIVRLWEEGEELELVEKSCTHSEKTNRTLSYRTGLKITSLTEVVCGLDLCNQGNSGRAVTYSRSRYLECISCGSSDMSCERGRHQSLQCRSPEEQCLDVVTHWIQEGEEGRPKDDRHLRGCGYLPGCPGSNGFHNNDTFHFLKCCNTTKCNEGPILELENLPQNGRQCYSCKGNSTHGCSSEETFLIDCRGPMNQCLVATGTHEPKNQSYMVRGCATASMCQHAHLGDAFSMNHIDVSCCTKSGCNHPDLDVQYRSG
Chain of vasopressin-1 receptor of rat liver cell membranes (rat) (P30560 whole entry): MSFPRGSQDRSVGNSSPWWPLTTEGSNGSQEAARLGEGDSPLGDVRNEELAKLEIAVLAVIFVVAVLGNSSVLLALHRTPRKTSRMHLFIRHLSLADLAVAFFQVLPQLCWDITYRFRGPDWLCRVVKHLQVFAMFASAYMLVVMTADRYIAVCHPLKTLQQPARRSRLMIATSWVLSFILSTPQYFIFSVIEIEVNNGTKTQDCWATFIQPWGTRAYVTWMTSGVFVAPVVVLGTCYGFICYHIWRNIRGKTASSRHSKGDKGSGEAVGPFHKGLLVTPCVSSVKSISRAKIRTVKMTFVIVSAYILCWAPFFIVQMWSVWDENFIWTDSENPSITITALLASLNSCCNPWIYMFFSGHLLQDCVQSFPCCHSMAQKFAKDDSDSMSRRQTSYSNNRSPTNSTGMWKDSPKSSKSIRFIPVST
Chain of oxytocin receptor of rat uterus cell membranes (rat) (P70536 whole entry): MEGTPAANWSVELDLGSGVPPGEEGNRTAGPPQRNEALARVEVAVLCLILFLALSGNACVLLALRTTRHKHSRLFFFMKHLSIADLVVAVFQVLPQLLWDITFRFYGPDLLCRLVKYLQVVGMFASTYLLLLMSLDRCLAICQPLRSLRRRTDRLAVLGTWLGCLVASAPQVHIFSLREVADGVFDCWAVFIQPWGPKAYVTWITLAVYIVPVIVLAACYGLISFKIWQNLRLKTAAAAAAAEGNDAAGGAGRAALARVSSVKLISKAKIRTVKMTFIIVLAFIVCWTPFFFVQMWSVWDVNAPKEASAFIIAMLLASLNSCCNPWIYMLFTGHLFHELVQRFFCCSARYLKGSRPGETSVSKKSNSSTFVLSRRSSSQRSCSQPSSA

Row | % Inhibition at 1 µM [1] [%] | % Inhibition at 1 µM [2] [%] | % Inhibition at 1 µM [3] [%] | Substance | other results
1 | 32 | – | – | Re-complexed Ac-Val-Ser-Asn-Lys-Tyr-Phe-Ser-Asn-Cys-Ile-His-Trp-NH2 (SEQ ID NO:10) (peptide) | –
2 | 0 | – | – | Re-complexed Ac-Val-Ser-Asn-Lys-Tyr-Phe-Ser-Asn-Ile-Cys-His-Trp-NH2 (SEQ ID NO:11) (peptide) | –
3 | 106 | – | – | Re-complexed Ac-Val-Ser-Asn-Lys-Tyr-Phe-Ser-Asn-Ile-His-Cys-Trp-NH2 (SEQ ID NO:3) (peptide) | –
4 | – | 1 | 6 | Re-complexed Ala-Tyr-Cys-Ile-Gln-Asn-Ala-Pro-Leu-Gly-NH2 (SEQ ID NO:158) (peptide) | –
5 | – | 1 | 0 | Re-complexed Ala-Tyr-Ile-Gln-Asn-Ala-Ala-Cys-Leu-Gly-NH2 (SEQ ID NO:152) (peptide) | –
6 | – | 0 | 0 | Re-complexed Ala-Tyr-Ile-Gln-Asn-Ala-Ala-Leu-Cys-Gly-NH2 (SEQ ID NO:151) (peptide) | –
7 | – | 0 | 2 | Re-complexed Ala-Tyr-Ile-Gln-Asn-Ala-Cys-Pro-Leu-Gly-NH2 (SEQ ID NO:153) (peptide) | –
8 | – | 0 | 42 | Re-complexed Ala-Tyr-Ile-Gln-Asn-Cys-Ala-Pro-Leu-Gly-NH2 (SEQ ID NO:155) (peptide) | –

Further lines, the substance ahead of its results:

Row | Substance | % Inhibition at 1 µM [1] [%] | % Inhibition at 1 µM [2] [%] | % Inhibition at 1 µM [3] [%] | other results
9 | Re-complexed Ac-Val-Ser-Asn-Cys-Lys-Tyr-Phe-Ser-Asn-Ile-His-Trp-NH2 (SEQ ID NO:5) (peptide) | 0 | – | – | –
10 | Re-complexed Ac-Val-Ser-Asn-Lys-Cys-Tyr-Phe-Ser-Asn-Ile-His-Trp-NH2 (SEQ ID NO:6) (peptide) | 13 | – | – | –
11 | Re-complexed Ac-Val-Ser-Asn-Lys-Tyr-Cys-Phe-Ser-Asn-Ile-His-Trp-NH2 (SEQ ID NO:7) (peptide) | 18 | – | – | –
12 | Re-complexed Ac-Val-Ser-Asn-Lys-Tyr-Phe-Cys-Ser-Asn-Ile-His-Trp-NH2 (SEQ ID NO:8) (peptide) | 0 | – | – | –
13 | Re-complexed Ac-Val-Ser-Asn-Lys-Tyr-Phe-Ser-Asn-Ile-His-Trp-Cys-NH2 (SEQ ID NO:12) (peptide) | 0 | – | – | –
14 | Re-complexed Ac-Val-Ser-Asn-Lys-Tyr-Phe-Ser-Cys-Asn-Ile-His-Trp-NH2 (SEQ ID NO:9) (peptide) | 35 | – | – | –
15 | Re-complexed Ac-Val-Ser-Cys-Asn-Lys-Tyr-Phe-Ser-Asn-Ile-His-Trp-NH2 (SEQ ID NO:4) (peptide) | 0 | – | – | –
16 | Re-complexed Ala-Tyr-Ile-Cys-Gln-Asn-Ala-Pro-Leu-Gly-NH2 (SEQ ID NO:157) (peptide) | – | 0 | 0 | –
17 | Re-complexed Ala-Tyr-Ile-Gln-Asn-Ala-Ala-Leu-Gly-Cys-NH2 (SEQ ID NO:150) (peptide) | – | 0 | 0 | –
18 | Re-complexed Ala-Tyr-Ile-Gln-Asn-Ala-Cys-Ala-Leu-Gly-NH2 (SEQ ID NO:154) (peptide) | – | 0 | 31 | –
19 | Re-complexed Ala-Tyr-Ile-Gln-Asn-Ala-Pro-Leu-Gly-Cys-NH2 (SEQ ID NO:149) (peptide) | – | 0 | 6 | –
20 | Re-complexed Ala-Tyr-Ile-Gln-Cys-Asn-Ala-Pro-Leu-Gly-NH2 (SEQ ID NO:156) (peptide) | – | 0 | 18 | –
21 | Re-complexed Sar-Arg-Cys-Val-Tyr-Ile-His-Pro-Thr (SEQ ID NO:165) (peptide) | – | – | – | % Inhibition at 1 µM [4]: 1%
22 | Re-complexed Sar-Arg-Val-Cys-Tyr-Ile-His-Pro-Thr (SEQ ID NO:164) (peptide) | – | – | – | % Inhibition at 1 µM [4]: 1%
23 | Re-complexed Sar-Arg-Val-Tyr-Cys-Ile-His-Pro-Thr (SEQ ID NO:163) (peptide) | – | – | – | % Inhibition at 1 µM [4]: 12%
24 | Re-complexed Sar-Arg-Val-Tyr-Ile-Cys-His-Pro-Thr (SEQ ID NO:162) (peptide) | – | – | – | % Inhibition at 1 µM [4]: 20%
25 | Re-complexed Sar-Arg-Val-Tyr-Ile-His-Cys-Gly-Thr (SEQ ID NO:166) (peptide) | – | – | – | % Inhibition at 1 µM [4]: 11%
26 | Re-complexed Sar-Arg-Val-Tyr-Ile-His-Cys-Pro-Thr (SEQ ID NO:161) (peptide) | – | – | – | % Inhibition at 1 µM [4]: 60%
27 | Re-complexed Sar-Arg-Val-Tyr-Ile-His-Gly-Cys-Thr (SEQ ID NO:160) (peptide) | – | – | – | % Inhibition at 1 µM [4]: 5%
